Patent publication US20210122810A1 (Janssen / Centocor, published 2021)

What was measured:
[1] = biological target: T1, Tau peptide encompassing residues 299-318 (human); assay: isothermal titration calorimetry (ratio of the KD values against CBTAU-27.1)
T1 construct: also called Tau protein (peptide)
T1 peptide: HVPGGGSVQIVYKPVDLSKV

[2] = biological target: T1, Tau peptide encompassing residues …; assay: isothermal titration calorimetry, peptide in cell titrated with IgG, PBS pH 7.4, one set of sites model
Description: Affinities of the binding molecules of the present invention were determined using a Microcal Auto-iTC200 isothermal titration calorimeter (Malvern). Tau and tau antibodies were dialysed to PBS, pH 7.4 to ensure perfect buffer matching conditions. […] Data was fitted according to a one set of sites model using Microcal PEAQ-ITC Analysis Software (Malvern).

fold improvement in affinity relative to CBTAU-27.1 [1]: 50 fold | Kd [2]: 12.8 nM
B1: antibody of the present invention (antibody, V domains shown)
VH: QVQLVESGPEMRKPGESLKISCKTSGYIFSDYWTAWVRQLPGKGLQWMGIIYSGDSDTRYHPSVQGHVTMSTDSSLTTAYLQWSSLKASDTGIYYCARLDARVDAGWQLDSWGQGTLVTVSS
VL: DIQLTQSPDSLAVSLGERATINCKSSQSVFYRDNNKNYLAWYQHKSGQPPKLLFFWASSRESGVSDRFSGSGSGTDFTLTIDNLQAEDVALYYCQHYFNIPHNFGQGTKLEIK
notes: also called antibody according to the present invention
